According to article doi:10.1101/2024.01.10.575016, “Cell Cycle Regulation has Shaped Budding Yeast Replication Origin Structure and Function” (bioRxiv, 2024):

What was measured:
Mcm3 = target: T1, Mcm3 (budding yeast, UniProt P24279 1-971); experiment: cryo-EM structure; MCM loading reaction on nucleosome-flanked ARS1 DNA (15 nM) with CDK-phosphorylated Orc6-4A ORC (40 nM) and MCM-Cdt1 (80 nM), 2.2 mM ATP, 30°C 30 min; SH and DH particles from the same data; settings: both partners purified
T1 construct: Mcm3, budding yeast

Mcm4 = target: T2, Mcm4 (budding yeast, UniProt P30665 1-933); experiment: as above; settings: both partners purified
T2 construct: Mcm4, budding yeast
T2 sequence: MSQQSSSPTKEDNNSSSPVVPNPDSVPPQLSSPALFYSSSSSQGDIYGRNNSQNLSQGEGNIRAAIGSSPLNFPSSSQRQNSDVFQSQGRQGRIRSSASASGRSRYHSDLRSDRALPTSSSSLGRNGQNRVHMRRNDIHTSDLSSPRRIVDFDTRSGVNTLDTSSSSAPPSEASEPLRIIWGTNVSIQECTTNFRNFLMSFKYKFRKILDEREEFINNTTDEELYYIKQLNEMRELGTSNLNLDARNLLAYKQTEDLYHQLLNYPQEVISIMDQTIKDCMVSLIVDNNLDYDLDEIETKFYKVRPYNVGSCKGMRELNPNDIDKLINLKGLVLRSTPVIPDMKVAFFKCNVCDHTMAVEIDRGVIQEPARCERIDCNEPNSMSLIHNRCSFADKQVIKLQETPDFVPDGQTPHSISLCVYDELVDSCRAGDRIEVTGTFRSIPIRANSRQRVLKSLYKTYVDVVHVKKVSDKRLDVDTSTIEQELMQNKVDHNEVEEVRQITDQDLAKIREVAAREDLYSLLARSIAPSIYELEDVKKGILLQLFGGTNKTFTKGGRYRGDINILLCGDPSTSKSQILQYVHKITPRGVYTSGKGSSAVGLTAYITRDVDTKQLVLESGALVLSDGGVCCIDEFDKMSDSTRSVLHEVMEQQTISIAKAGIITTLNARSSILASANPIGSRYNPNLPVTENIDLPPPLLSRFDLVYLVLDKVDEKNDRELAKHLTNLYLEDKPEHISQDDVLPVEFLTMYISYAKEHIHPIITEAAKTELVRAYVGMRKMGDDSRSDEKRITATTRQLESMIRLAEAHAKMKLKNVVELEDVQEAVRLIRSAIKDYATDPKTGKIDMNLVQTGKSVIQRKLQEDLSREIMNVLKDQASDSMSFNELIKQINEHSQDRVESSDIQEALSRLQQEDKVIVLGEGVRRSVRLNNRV

T1 sequence (P24279 whole entry): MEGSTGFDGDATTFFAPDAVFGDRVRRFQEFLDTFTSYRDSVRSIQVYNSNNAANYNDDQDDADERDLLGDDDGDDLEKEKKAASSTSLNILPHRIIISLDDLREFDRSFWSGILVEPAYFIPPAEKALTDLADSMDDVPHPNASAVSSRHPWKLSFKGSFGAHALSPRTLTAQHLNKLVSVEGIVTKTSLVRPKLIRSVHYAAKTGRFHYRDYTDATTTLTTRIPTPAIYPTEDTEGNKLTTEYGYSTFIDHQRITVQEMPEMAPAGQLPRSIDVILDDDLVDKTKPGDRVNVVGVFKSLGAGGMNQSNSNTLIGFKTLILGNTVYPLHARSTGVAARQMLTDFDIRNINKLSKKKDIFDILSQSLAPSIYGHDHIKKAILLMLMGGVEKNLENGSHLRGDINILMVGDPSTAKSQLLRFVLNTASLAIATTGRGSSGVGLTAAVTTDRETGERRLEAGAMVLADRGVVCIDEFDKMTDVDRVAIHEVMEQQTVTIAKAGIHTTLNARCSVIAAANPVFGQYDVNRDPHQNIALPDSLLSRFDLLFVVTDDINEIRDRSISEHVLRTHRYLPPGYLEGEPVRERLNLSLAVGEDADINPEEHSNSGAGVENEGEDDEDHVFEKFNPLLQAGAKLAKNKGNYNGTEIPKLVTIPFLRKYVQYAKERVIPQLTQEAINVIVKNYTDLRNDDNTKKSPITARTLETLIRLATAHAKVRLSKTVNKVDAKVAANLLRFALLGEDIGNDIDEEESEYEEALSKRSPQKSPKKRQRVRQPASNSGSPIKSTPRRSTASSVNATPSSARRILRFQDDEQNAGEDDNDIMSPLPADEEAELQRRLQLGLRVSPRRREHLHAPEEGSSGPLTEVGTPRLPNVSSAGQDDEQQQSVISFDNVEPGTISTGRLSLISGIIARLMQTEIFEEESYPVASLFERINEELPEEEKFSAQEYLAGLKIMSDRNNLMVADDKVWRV

binding result (Mcm3): binds
binding result (Mcm4): binds
B1: Mcm7 (natural protein, budding yeast)
chain: MSAALPSIQLPVDYNNLFNEITDFLVTFKQDTLSSDATRNENEDENLDAENIEQHLLEKGPKYMAMLQKVANRELNSVIIDLDDILQYQNEKFLQGTQADDLVSAIQQNANHFTELFCRAIDNNMPLPTKEIDYKDDVLDVILNQRRLRNERMLSDRTNEIRSENLMDTTMDPPSSMNDALREVVEDETELFPPNLTRRYFLYFKPLSQNCARRYRKKAISSKPLSVRQIKGDFLGQLITVRGIITRVSDVKPAVEVIAYTCDQCGYEVFQEVNSRTFTPLSECTSEECSQNQTKGQLFMSTRASKFSAFQECKIQELSQQVPVGHIPRSLNIHVNGTLVRSLSPGDIVDVTGIFLPAPYTGFKALKAGLLTETYLEAQFVRQHKKKFASFSLTSDVEERVMELITSGDVYNRLAKSIAPEIYGNLDVKKALLLLLVGGVDKRVGDGMKIRGDINVCLMGDPGVAKSQLLKAICKISPRGVYTTGKGSSGVGLTAAVMKDPVTDEMILEGGALVLADNGICCIDEFDKMDESDRTAIHEVMEQQTISISKAGINTTLNARTSILAAANPLYGRYNPRLSPLDNINLPAALLSRFDILFLMLDIPSRDDDEKLAEHVTYVHMHNKQPDLDFTPVEPSKMREYIAYAKTKRPVMSEAVNDYVVQAYIRLRQDSKREMDSKFSFGQATPRTLLGIIRLSQALAKLRLADMVDIDDVEEALRLVRVSKESLYQETNKSKEDESPTTKIFTIIKKMLQETGKNTLSYENIVKTVRLRGFTMLQLSNCIQEYSYLNVWHLINEGNTLKFVDDGTMDTDQEDSLVSTPKLAPQTTASANVSAQDSDIDLQDA
notes: Mcm7, budding yeast
